Here are results for 15 molecules from US20210206856A1 (PANDION OPERATIONS, published 2021).

Assay [1] concerns the target T1, mouse MAdCAM expressed on cells (mouse, UniProt Q61826 22-405).
T1 construct: whole, on cells
T1 sequence (looked up): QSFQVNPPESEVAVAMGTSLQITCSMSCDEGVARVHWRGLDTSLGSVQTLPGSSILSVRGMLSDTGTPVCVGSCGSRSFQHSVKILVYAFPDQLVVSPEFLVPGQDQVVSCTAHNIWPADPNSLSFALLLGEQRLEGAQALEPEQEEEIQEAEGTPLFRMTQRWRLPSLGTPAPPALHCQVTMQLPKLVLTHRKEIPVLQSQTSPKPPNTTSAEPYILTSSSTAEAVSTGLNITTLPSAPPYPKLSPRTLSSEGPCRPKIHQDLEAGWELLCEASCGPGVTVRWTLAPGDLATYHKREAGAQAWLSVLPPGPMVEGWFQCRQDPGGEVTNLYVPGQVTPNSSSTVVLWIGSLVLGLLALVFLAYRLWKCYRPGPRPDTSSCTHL
In words: cell binding.

Assay [2] has as its target T2, human MAdCAM expressed on cells (human, UniProt Q13477 19-382).
T2 construct: whole, on cells; also called MADCAM1
T2 sequence (looked up): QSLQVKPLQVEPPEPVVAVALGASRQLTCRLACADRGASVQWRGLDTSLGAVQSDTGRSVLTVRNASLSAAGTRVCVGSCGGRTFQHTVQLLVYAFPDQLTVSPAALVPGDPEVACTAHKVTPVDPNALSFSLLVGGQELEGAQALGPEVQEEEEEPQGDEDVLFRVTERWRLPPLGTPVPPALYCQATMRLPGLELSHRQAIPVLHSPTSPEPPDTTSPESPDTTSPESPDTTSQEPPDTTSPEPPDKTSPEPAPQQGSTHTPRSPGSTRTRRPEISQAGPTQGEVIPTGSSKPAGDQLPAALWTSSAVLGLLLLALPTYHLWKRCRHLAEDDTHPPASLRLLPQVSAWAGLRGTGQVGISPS
In words: cell binding.

B1: MAdCAM Antibody Table 2 Clone 26 (antibody, V domains shown)
VH: EVQLLESGGGLVQPGGSLRLSCAASGFTFSSYAMSWVRQAPGKGLEWVSYISSSSTYTNYADSVKGRFTISRDNSKNTLYLQMNSLRAEDTAVYYCARANSSSWYDWYFDLWGQGTLVTVSS
VL: not shown
As to B1, the binding result in assay [1] is recorded as “no binding”; in assay [2], “binds”.

B2: MAdCAM Antibody Table 2 Clone 36 (antibody, human IgG1, V domains shown)
VH: EVQLLESGGGLVQPGGSLRLSCAASGFTFDDYALHWVRQAPGKGLEWVSAISGDGRSTTYADSVKGRFTISRDNSKNTLYLQMNSLRAEDTAVYYCARDGTVNGATGWFDPWGQGTLVTVSS
VL: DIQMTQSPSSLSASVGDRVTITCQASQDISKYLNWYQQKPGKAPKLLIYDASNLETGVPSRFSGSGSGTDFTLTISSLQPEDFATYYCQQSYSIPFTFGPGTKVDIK
As for B2, the binding result in assay [1] and in assay [2] was “binds” throughout.

B3: MAdCAM Antibody Table 2 Clone 52 (antibody, human IgG1, V domains shown)
VH: EVQLLESGGGLVQPGGSLRLSCAASGFTFDDYGMSWVRQAPGKGLEWVSYISSSSSYIYYADSVKGRFTISRDNSKNTLYLQMNSLRAEDTAVYYCAREIAAAGFYGMDVWGQGTTVTVSS
VL: not shown
On to B3, for which the results for the binding result in assay [1] and in assay [2] were “no binding” and “binds”, respectively.

B4: MAdCAM Antibody Table 2 Clone 44 (antibody, human IgG1, V domains shown)
VH: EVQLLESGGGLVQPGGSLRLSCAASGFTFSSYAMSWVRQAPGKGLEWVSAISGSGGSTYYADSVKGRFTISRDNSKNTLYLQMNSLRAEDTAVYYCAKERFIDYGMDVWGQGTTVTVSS
VL: DIQMTQSPSSLSASVGDRVTITCQASQDISNYLNWYQQKPGKAPKLLIYAASSLQSGVPSRFSGSGSGTDFTLTISSLQPEDFATYYCQQTYSGWTFGPGTKVDIK
Turning to B4, the binding result in assay [1] is reported as “no binding”; in assay [2] it was “binds”.

B5: MAdCAM Antibody Table 2 Clone 30 (antibody, human IgG1, V domains shown)
VH: EVQLLESGGGLVQPGGSLRLSCAASGFTFSSYAMHWVRQAPGKGLEWVSGISGSGGSAYYADSVKGRFTISRDNSKNTLYLQMNSLRAEDTAVYYCATSQAPVDYYYYGMDVWGQGTTVTVSS
VL: DIQMTQSPSSLSASVGDRVTITCRASQSISSWLAWYQQKPGKAPKLLIYAASNLQRGVPSRFSGSGSGTDFTLTISSLQPEDFATYYCQQSYSIPITFGQGTKVEIK
Consider B5, for which the binding result in assay [1] and in assay [2] was “binds” each time.

B6: MAdCAM Antibody Table 2 Clone 41 (antibody, human IgG1, V domains shown)
VH: QVQLVQSGAEVKKPGASVKVSCKASGYTFTSYYMHWVRQAPGQGLEWMGIINPSGGSTSYAQKFQGRVTMTRDTSTSTVYMELSSLRSEDTAVYYCARDTGYSYGRYYYYGMDVWGQGTLVTVSS
VL: DIQMTQSPSSLSASVGDRVTITCRASQSIGRWLAWYQQKPGKAPKLLIYDASNLQSGVPSRFSGSGSGTDFTLTISSLQPEDFATYYCQQSYSIPITFGQGTKVEIK
As for B6, the figures for the binding result in assay [1] and in assay [2] were “no binding” and “binds”, respectively.

B7: MAdCAM Antibody Table 2 Clone 38 (antibody, human IgG1, V domains shown)
VH: QVQLVQSGAEVKKPGASVKVSCKASGYTFTDYFLHWVRQAPGQGLEWMGWMNPTSGNTGYAQKFQGRVTMTRDTSTSTVYMELSSLRSEDTAVYYCAREGEGSGFDYWGQGTLVTVSS
VL: DIQMTQSPSSLSASVGDRVTITCRASQGINSWLAWYQQKPGKAPKLLIYDASNLETGVPSRFSGSGSGTDFTLTISSLQPEDFATYYCQQSYSTPLTFGGGTKVEIK
Regarding B7, the binding result in assay [1] is given as “no binding”; in assay [2], “binds”.

B8: MAdCAM Antibody Table 2 Clone 40 (antibody, human IgG1, V domains shown)
VH: QVQLVQSGAEVKKPGASVKVSCKASGYTLTTWYMYWVRQAPGQGLEWMGWINPNRGATNYAQKFQGRVTMTRDTSTSTVYMELSSLRSEDTAVYYCAKGDLWGAMDVWGQGTLVTVSS
VL: DIQMTQSPSSLSASVGDRVTITCRASDNIGSWLAWYQQKPGKAPKLLIYAASSLQSGVPSRFSGSGSGTDFTLTISSLQPEDFATYYCQQGYSTPPTFGQGTKVEIK
On to B8, for which the binding result in assay [1] is “no binding”; in assay [2], “binds”.

B9: MAdCAM Antibody Table 2 Clone 43 (antibody, human IgG1, V domains shown)
VH: QVQLVQSGAEVKKPGASVKVSCKASGYTFTSYGISWVRQAPGQGLEWMGWMHPKSGDTGLTQKFQGRVTMTRDTSTSTVYMELSSLRSEDTAVYYCARDTPYYYYGMDVWGQGTTVTVSS
VL: DIQMTQSPSSLSASVGDRVTITCRASQSISSWLAWYQQKPGKAPKLLIYAASSLQSGVPSRFSGSGSGTDFTLTISSLQPEDFATYYCQQSYSVPITFGQGTKVEIK
As to B9, the binding result was “no binding” in assay [1] and “binds” in assay [2].

B10: MAdCAM Antibody Table 2 Clone 42 (antibody, human IgG1, V domains shown)
VH: QVQLVQSGAEVKKPGASVKVSCKASGYTLTDYYMHWVRQAPGQGLEWMGIINPSGGSTSYAQKFQGRVTMTRDTSTSTVYMELSSLRSEDTAVYYCAREEYSSSSGYFDYWGQGTLVTVSS
VL: DIQMTQSPSSLSASVGDRVTITCRASQGISSWLAWYQQKPGKAPKLLIYAASSLQSGVPSRFSGSGSGTDFTLTISSLQPEDFATYYCQQSYSTPLTFGQGTKVEIK
For B10, the binding result in assay [1] was “no binding”; in assay [2], “binds”.

B11: MAdCAM Antibody Table 2 Clone 39 (antibody, human IgG1, V domains shown)
VH: QVQLVQSGAEVKKPGASVKVSCKASGYTFTSYYMHWVRQAPGQGLEWMAWMNPNSGNTGYAQKFQGRVTMTRDTSTSTVYMELSSLRSEDTAVYYCARDYDFWSGSLGYWGQGTLVTVSS
VL: DIQMTQSPSSLSASVGDRVTITCRASQGISNYLAWYQQKPGKAPKLLIYAASSLQSGVPSRFSGSGSGTDFTLTISSLQPEDFATYYCQQSYSTPWTFGQGTKVEIK
As to B11, the binding result in assay [1] was “no binding”; in assay [2], “binds”.

B12: MAdCAM Antibody Table 2 Clone 34 (antibody, human IgG1, V domains shown)
VH: QVQLVQSGAEVKKPGASVKVSCKASGYTFTGYYIHWVRQAPGQGLEWMGWMNPNSGNTGYAQKFQGRVTMTRDTSTSTVYMELSSLRSEDTAVYYCARDPGFLGYCSGGSCYDGWFDPWGQGTLVTVSS
VL: DIQMTQSPSSLSASVGDRVTITCRASQSISSYLHWYQQKPGKAPKLLIYAASSLQSGVPSRFSGSGSGTDFTLTISSLQPEDFATYYCQQSYTAPYTFGQGTKLEIK
For B12, the binding result in assay [1] is recorded as “no binding”; in assay [2], “binds”.

B13: MAdCAM Antibody Table 2 Clone 37 (antibody, human IgG1, V domains shown)
VH: EVQLLESGGGLVQPGGSLRLSCAASGFTFSDYGMPWVRQAPGKGLEWVSAISGSGGSTYYADSVKGRFTISRDNSKNTLYLQMNSLRAEDTAVYYCARDGGWQPAAILDYWGQGTLVTVSS
VL: DIQMTQSPSSLSASVGDRVTITCRASQGISNNLNWYQQKPGKAPKLLIYDASNLETGVPSRFSGSGSGTDFTLTISSLQPEDFATYYCQQSYSTPLTFGQGTKVEIK
As for B13, the binding result in assay [1] is “no binding”; in assay [2], “binds”.

B14: MAdCAM Antibody Table 2 Clone 59 (antibody, human IgG1, V domains shown)
VH: EVQLLESGGGLVQPGGSLRLSCAASGFSFSDYGMHWVRQAPGKGLEWVSAISGSGGSTYYADSVKGRFTISRDNSKNTLYLQMNSLRAEDTAVYYCARDGGWQPAAILDYWGQGTLVTVSS
VL: DIQMTQSPSSLSASVGDRVTITCRASQGISNNLNWYQQKPGKAPKLLIYDASNLETGVPSRFSGSGSGTDFTLTISSLQPEDFATYYCQQSYSTPLTFGGGTKVEIK
As to B14, the binding result is “no binding” in assay [1] and “binds” in assay [2].

B15: MAdCAM Antibody Table 2 Clone 45 (antibody, human IgG1, V domains shown)
VH: EVQLVESGGGLVKPGGSLRLSCAASGFTFGDYAMSWVRQAPGKGLEWVSYISGDIGYTNYAAPVKGRFTISRDDSKNTLYLQMNSLKTEDTAVYYCARDVAATGNWYFDLWGRGTLVTVSS
VL: not shown
For the molecule B15, the binding result in assay [1] is “no binding”; in assay [2], “binds”.
